Data published in PMC7820887 (Frontiers in Immunology, 2020).

T1: soluble extracellular domain of human IL-5 receptor alpha subunit (sIL-5Rα) (human, UniProt Q01344 21-333)
T1 chain: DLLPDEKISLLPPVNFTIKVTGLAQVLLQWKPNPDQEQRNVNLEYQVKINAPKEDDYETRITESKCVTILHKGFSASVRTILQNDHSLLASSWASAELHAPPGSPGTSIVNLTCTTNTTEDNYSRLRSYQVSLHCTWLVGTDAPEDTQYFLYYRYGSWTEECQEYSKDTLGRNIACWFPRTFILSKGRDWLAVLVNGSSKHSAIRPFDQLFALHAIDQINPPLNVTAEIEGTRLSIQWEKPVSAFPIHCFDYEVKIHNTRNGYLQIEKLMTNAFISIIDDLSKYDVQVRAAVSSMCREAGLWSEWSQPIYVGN


Legend:
[1] = target: T2, soluble extracellular domain of human IL-5 receptor alpha subunit (sIL-5Rα) (human, UniProt Q01344); assay: cell-based or functional assay
[2] = target: T2, soluble extracellular domain of human …; assay: BLI; Octet QKe, 30°C, 1× kinetics buffer in PBS pH 7.4; Ab immobilised on anti-human IgG Fc capture (AHC) biosensors, sIL-5Rα as analyte; association 300 s, dissociation 600 s; 1:1 binding model; conditions: both partners purified
[3] = target: T1, soluble extracellular domain of human …; assay: ELISA; competition with plate-immobilized IL-5-mFc
insulin = target: T3, insulin (Homo sapiens (assumed), UniProt P01308); assay: ELISA; plates coated at 25°C for 1 h with sIL-5Rα (50 ng/well) or off-target antigens (insulin 125 ng/well, hemocyanin 125 ng/well); Abs 8–200 nM in PBST pH 7.4 with 2% skim milk, 25°C, 1 h; detected with HRP anti-human Fc or anti-mouse Fc; conditions: both partners purified
T3 construct: insulin B chain; insulin A chain; Off-target antigen of the nonspecificity ELISA (125 ng/well)
T3 sequence (P01308 whole entry, looked up): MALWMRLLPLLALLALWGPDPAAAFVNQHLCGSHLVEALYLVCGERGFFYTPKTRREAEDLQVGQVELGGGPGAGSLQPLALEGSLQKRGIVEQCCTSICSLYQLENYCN

Row | Binder | IC50 of inhibition of rhIL-5 (80 pM)-stimulated proliferation of TF-1/IL-5Rα cells, Abs 0 to 32 nM, 40 h (blocks IL-5 with IL-5Rα) [1] | NK cell–mediated ADCC against peripheral eosinophils from healthy controls (autologous NK cells 1:5, Ab 1 μM, rhIL-5 100 pM, 20 h), fold against the benralizumab analogue [1] | Kd [2] | koff [2] | kon [2] | IC50 [3] | binding result (insulin)
1 | 5R65.39 (antibody, V domains shown, as the VH of m6 (5R65) with mutations in VH-CDR3 (Kabat residues 95–100d were randomised); no mutations in VL-CDR3; Human IgG1, kappa; selected as scFab by yeast display from the 5R65 CDR3 library under kinetic screening; source: HEK293F, purified (Protein A)) VH: QVQLVQSGAEVKKPGSSVKVSCKASGYTFTSYWINWVRQAPGQGLEWIGHIYPNKNENYYNHKFKDKATLTVDKSTNTAYMELSSLRSEDTAVYYCTREFYGRSRYSAMDYWGQGTTLTVSS VL: DIQMTQSPSTLSASVGDRVTITCKASQNVGTAVAWYQQKPGKAPKLLIYWASTRHTGVPDRFSGSGSGTDFTLTISSLQPDDFATYYCQQFGRYPYTFGSGTKVEVK | – | – | 6.13 ± 0.32 nM | 0.000171 s⁻¹ | 28000 M⁻¹ s⁻¹ | – | –
2 | hu2B7 humanized anti–IL-5Rα antibody (antibody, V domains shown, VH of hu2B7: CDRs of m2B7 grafted on the FRs of daclizumab, mouse ThrH93 (Kabat) kept; VL of hu2B7: CDRs of m2B7 grafted on the FRs of daclizumab, mouse AspL60 and AspL70 kept; Full-length human IgG1, kappa; source: HEK293F, transiently cotransfected, purified (Protein A)) VH: QVQLVQSGAEVKKPGSSVKVSCKASGYTFTSYWINWVRQAPGQGLEWIGHIYPSESYTNYNQKFKDKATLTVDKSTNTAYMELSSLRSEDTAVYYCTRDYYGRSYYYAMDYWGQGTTLTVSS VL: DIQMTQSPSTLSASVGDRVTITCKASQNVGTAVAWYQQKPGKAPKLLIYWASTRHTGVPDRFSGSGSGTDFTLTISSLQPDDFATYYCQQFGRYPYTFGSGTKVEVK | – | – | 47.8 ± 1.06 nM | 0.00106 s⁻¹ | 22200 M⁻¹ s⁻¹ | 57.4 nM | –
3 | 5R80 (antibody, V domains shown, Human IgG1, kappa; selected as scFab by yeast display from the hu2B7 VH-CDR2 library; source: HEK293F, purified (Protein A)) VH: QVQLVQSGAEVKKPGSSVKVSCKASGYTFTSYWINWVRQAPGQGLEWIGHIYPQKTLTIYNHKFKDKATLTVDKSTNTAYMELSSLRSEDTAVYYCTRDYYGRSYYYAMDYWGQGTTLTVSS VL: DIQMTQSPSTLSASVGDRVTITCKASQNVGTAVAWYQQKPGKAPKLLIYWASTRHTGVPDRFSGSGSGTDFTLTISSLQPDDFATYYCQQFGRYPYTFGSGTKVEVK | – | – | 16.2 ± 0.59 nM | 0.000365 s⁻¹ | 22500 M⁻¹ s⁻¹ | 24.2 nM | no binding (tested: 100 nM)

Now from value to binder:

Row | IC50 of inhibition of rhIL-5 (80 pM)-stimulated proliferation of TF-1/IL-5Rα cells, Abs 0 to 32 nM, 40 h (blocks IL-5 with IL-5Rα) [1] | NK cell–mediated ADCC against peripheral eosinophils from healthy controls (autologous NK cells 1:5, Ab 1 μM, rhIL-5 100 pM, 20 h), fold against the benralizumab analogue [1] | Kd [2] | koff [2] | kon [2] | IC50 [3] | binding result (insulin) | Binder
4 | ~0.57 nM | ~3 fold | 4.64 ± 0.23 nM | 0.000147 s⁻¹ | 31700 M⁻¹ s⁻¹ | – | – | 5R65.7 (antibody, V domains shown, as the VH of m6 (5R65) with mutations in VH-CDR3 (Kabat residues 95–100d were randomised); no mutations in VL-CDR3; Human IgG1, kappa; selected as scFab by yeast display from the 5R65 CDR3 library under kinetic screening; also called 5R65.7 Ab; source: HEK293F, purified (Protein A)) VH: QVQLVQSGAEVKKPGSSVKVSCKASGYTFTSYWINWVRQAPGQGLEWIGHIYPNKNENYYNHKFKDKATLTVDKSTNTAYMELSSLRSEDTAVYYCTREFYGRQYYQAMDYWGQGTTLTVSS VL: DIQMTQSPSTLSASVGDRVTITCKASQNVGTAVAWYQQKPGKAPKLLIYWASTRHTGVPDRFSGSGSGTDFTLTISSLQPDDFATYYCQQFGRYPYTFGSGTKVEVK
5 | – | – | 5.95 ± 0.27 nM | 0.000133 s⁻¹ | 22400 M⁻¹ s⁻¹ | – | – | 5R65.18 (antibody, V domains shown, as the VH of m6 (5R65) with mutations in VH-CDR3 (Kabat residues 95–100d were randomised); no mutations in VL-CDR3; Human IgG1, kappa; selected as scFab by yeast display from the 5R65 CDR3 library under kinetic screening; source: HEK293F, purified (Protein A)) VH: QVQLVQSGAEVKKPGSSVKVSCKASGYTFTSYWINWVRQAPGQGLEWIGHIYPNKNENYYNHKFKDKATLTVDKSTNTAYMELSSLRSEDTAVYYCTREYYGRTYYSAMDYWGQGTTLTVSS VL: DIQMTQSPSTLSASVGDRVTITCKASQNVGTAVAWYQQKPGKAPKLLIYWASTRHTGVPDRFSGSGSGTDFTLTISSLQPDDFATYYCQQFGRYPYTFGSGTKVEVK
6 | – | – | 8.64 ± 0.35 nM | 0.000199 s⁻¹ | 23000 M⁻¹ s⁻¹ | – | – | 5R65.14 (antibody, V domains shown, as the VH of m6 (5R65) with mutations in VH-CDR3 (Kabat residues 95–100d were randomised); no mutations in VL-CDR3; Human IgG1, kappa; selected as scFab by yeast display from the 5R65 CDR3 library under kinetic screening; source: HEK293F, purified (Protein A)) VH: QVQLVQSGAEVKKPGSSVKVSCKASGYTFTSYWINWVRQAPGQGLEWIGHIYPNKNENYYNHKFKDKATLTVDKSTNTAYMELSSLRSEDTAVYYCTREHYGRPYYNAMDYWGQGTTLTVSS VL: DIQMTQSPSTLSASVGDRVTITCKASQNVGTAVAWYQQKPGKAPKLLIYWASTRHTGVPDRFSGSGSGTDFTLTISSLQPDDFATYYCQQFGRYPYTFGSGTKVEVK
7 | – | – | 11.8 ± 0.51 nM | 0.0003 s⁻¹ | 25400 M⁻¹ s⁻¹ | 14.1 nM | no binding (tested: 100 nM) | 5R86 (antibody, V domains shown, Human IgG1, kappa; selected as scFab by yeast display from the hu2B7 VH-CDR2 library; source: HEK293F, purified (Protein A)) VH: QVQLVQSGAEVKKPGSSVKVSCKASGYTFTSYWINWVRQAPGQGLEWIGHIYPTSSVKFYNNKFKDKATLTVDKSTNTAYMELSSLRSEDTAVYYCTRDYYGRSYYYAMDYWGQGTTLTVSS VL: DIQMTQSPSTLSASVGDRVTITCKASQNVGTAVAWYQQKPGKAPKLLIYWASTRHTGVPDRFSGSGSGTDFTLTISSLQPDDFATYYCQQFGRYPYTFGSGTKVEVK
